The assay concerns the target dopamine D2 receptor labelled with mCherry (D2R-mCherry) (UniProt P14416).
Sequence of UniProt P14416 (P14416 whole entry): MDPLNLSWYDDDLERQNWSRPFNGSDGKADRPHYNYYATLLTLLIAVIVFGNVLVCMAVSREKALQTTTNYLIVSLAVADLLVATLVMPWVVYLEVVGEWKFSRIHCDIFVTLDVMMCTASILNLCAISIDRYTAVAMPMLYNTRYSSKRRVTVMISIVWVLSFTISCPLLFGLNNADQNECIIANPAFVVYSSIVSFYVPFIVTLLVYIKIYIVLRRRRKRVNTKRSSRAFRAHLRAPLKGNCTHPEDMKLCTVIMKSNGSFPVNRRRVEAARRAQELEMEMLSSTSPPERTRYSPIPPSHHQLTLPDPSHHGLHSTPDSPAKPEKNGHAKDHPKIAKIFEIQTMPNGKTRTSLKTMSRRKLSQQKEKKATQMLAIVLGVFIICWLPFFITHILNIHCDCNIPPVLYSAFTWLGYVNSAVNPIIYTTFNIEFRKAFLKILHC
As to “Gαi3β1γ2 heterotrimer (Gαi3-Citrine with Gβ1 and Gγ2) (from UniProt P08754 1-354; P62873 1-340; P59768 1-71) (complex)”, the intracellular cAMP level in HEK293 cells after stimulation of D2R with 1 μM sumanirole, as percent of control (stimulated nontransfected cells) (% of the control) stood at 20. For “Gαi3β1γ9 heterotrimer (Gαi3-Citrine with Gβ1 and Gγ9) (from UniProt P08754 1-354; P62873 1-340; O14610 1-69) (complex)”, the intracellular cAMP level in HEK293 cells after stimulation of D2R with 1 μM sumanirole, as percent of control (stimulated nontransfected cells) (% of the control) stood at 70.4. The substance “Gαi3β1γ10 heterotrimer (Gαi3-Citrine with Gβ1 and Gγ10) (from UniProt P08754 1-354; P62873 1-340; P50151 1-68) (complex)” had an intracellular cAMP level in HEK293 cells after stimulation of D2R with 1 μM sumanirole, as percent of control (stimulated nontransfected cells) (% of the control) of 14.4.

Source of the values: publication PMC10566112.
